According to a protein production outcome set (Wang et al. 2014):

Assay: label from the status in PepcDB records

**Q.** For “MSSSLLSVLKEKSRSLKIRNKPVKMTSQERMIVHRCRFVDFTPATITSLAFSHKSNINKLTPSDLRLAIGRSNGNIEIWNPRNNWFQEMVIEGGKDRSIEGLCWSNVNGESLRLFSIGGSTVVTEWDLATGLPLRNYDCNSGVIWSISINDSQDKLSVGCDNGTVVLIDISGGPGVLEHDTILMRQEARVLTLAWKKDDFVIGGCSDGRIRIWSAQKNDENMGRLLHTMKVDKAKKESTLVWSVIYLPRTDQIASGDSTGSIKFWDFQFATLNQSFKAHDADVLCLTTDTDNNYVFSAGVDRKIFQFSQNTNKSQKNNRWVNSSNRLLHGNDIRAICAYQSKGADFLVSGGVEKTLVINSLTSFSNGNYRKMPTVEPYSKNVLVNKEQRLVVSWSESTVKIWTMGTDSSTEQNYKLVCKLTLKDDQNISTCSLSPDGQVLVVGRPSTTKVFHLQPVGNKLKVTKLDNDLLLRTSTKLVKFIDNSKIVICSCEDDVFIVDLESEEDEKPQEVELLEVTSTKSSIKVPYINRINHLEVDQNIAVISRGCGVVDILDLKARISKPLARLNNFITAVHINTSRKSVVVITADNKIYEFNMNLNSEAENEDSESVLTQWSKNNTDNLPKEWKTLKENCVGIFSDIENSSRLWFWGATWISRIDFDVDFPINKRRKQKKRTHEGLTITDESNFMNDEEDDEDDDIDMEISENLNVLLNQGNKIKSTDVQRNEESSGHFFFTDKYKPLLFVDLISSNELAIIERNPLTFHSKQKAFIQPKLVF”, which protein production is on record?
**A.** Its protein production is “failed”.

**Q.** With “MSSSQQIAKNARKAGNILKTISNEGRSDILYKIHDALKANAHAIEEANKIDLAVAKETGLADSLLKRLDLFKGDKFEVMLQGIKDVAELEDPVGKVKMARELDDGLTLYQVTAPVGVLLVIFESRPEVIANITALSIKSGNAAILKGGKESVNTFREMAKIVNDTIAQFQSETGVPVGSVQLIETRQDVSDLLDQDEYIDLVVPRGSNALVRKIKDTTKIPVLGHADGICSIYLDEDADLIKAKRISLDAKTNYPAGCNAMETLLINPKFSKWWEVLENLTLEGGVTIHATKDLKTAYFDKLNELGKLTEAIQCKTVDADEEQDFDKEFLSLDLAAKFVTSTESAIQHINTHSSRHTDAIVTENKANAEKFMKGVDSSGVYWNASTRFADGFRYGFGAEVGISTSKIHARGPVGLDGLVSYQYQIRGDGQVASDYLGAGGNKAFVHKDLDIKTVTLZ” as the sequence, how does the protein production read?
**A.** Its protein production is “not failed”.

**Q.** For “MSSSSSVPAYLGDEDLTQETRALISSLPKEKGWLVSEIYEFQGLWHTQAILQGILICQKRFEAKDSDIILVTNPKSGTTWLKALVFALLNRHKFPVSSSGNHPLLVTNPHLLVPFLEGVYYESPDFDFSSLPSPRLMNTHISHLSLPESVKSSSCKIVYCCRNPKDMFVSLWHFGKKLAPEETADYPIEKAVEAFCEGKFIGGPFWDHILEYWYASRENPNKVLFVTYEELKKQTEVEMKRIAEFLECGFIEEEEVREIVKLCSFESLSNLEVNKEGKLPNGIETKTFFRKGEIGGWRDTLSESLAEEIDRTIEEKFKGSGLKFSS”, which protein production is on record?
**A.** Its protein production is “not failed”.

**Q.** For “MSSSTSQDFVSRPVIKKVFAKLQKEGDGAVVRRGISRSEQKLLDPFLMLDEFSVSPPAGFPDHPHRGITHQDFKGHKGTIYAGDVQWMTAGRGIIHSEMPEEEVNKEPNYQELSHSDIPKAEQNGVEVKVIAGESMGIQSPVYTRTPTMFLDFTLQPGAQIHQNVPESWNAFAYILESGEGGGVFSSSNSSPIPAHSVVVFGPGNDGVSVWNKSSSKQLRFVLIAGEPIGEPVVQYGPFVMNTQAEIDMTIEDYHYGKNGFEMAKYWRSQ”, which protein production is on record?
**A.** Its protein production is “failed”.

**Q.** Which protein production does the source give for “MSSVPRFWRNLGSRYNLEGTRCKECGEYFYPPRNVCVNCRRMGELEPFKFKGTGEIVSYTLIHTGAEGFEGQAPYTLAIIKLDEGPRLTSQVVGNTDNIQIGTRVRSVFRKLGEDGERGMIYYGTKFVPVDALEHHHHHH” here?
**A.** The protein production was “not failed”.

**Q.** With “MSSVSEVNVDIKDFLMSINLEQYLLHFHESGFTTVKDCAAINDSLLQKIGISPTGHRRRILKQLQIILSKMQDIPIYA” as the sequence, how does the protein production read?
**A.** The protein production was “not failed”.

**Q.** With “MSTKDKYDILNLCFYEKEAIMANVLFLVGSLRDGSFNHQMAKKAEAFLTDKAQVSYIDLAKIPLFNQDIETPILPEIAELRAQVDAADAIWIFSPVYNYAIPGIVKNALDWLSRSLDLSNPKGPSILQDKITTVSAVANSGHDHLFKDFQHLLPFIRTQIAGEFTGSTINPEAWGTGVLELSDETLTKLEQQVADLLAAIQ” as the sequence, how does the protein production read?
**A.** Its protein production is “failed”.

**Q.** Which protein production does the source give for “MSTPDATSPGSQQQDVFDFLGRGAGDAPVVRIDTHGAAVFLEGNRAMKIKRAVKFPFLDYSTLAKRKIACEQELEVGHRFAPTIYRRVVPITRTDKGALQIGGEGPAVEWAVEMMRFDDSATLDHLARAGSLGPGLIDAVADAIAASHQAAPLAATAPWGASIEPILADDTNELAAGGFAAADVAALDNGSRNALGRLRPLLEQRGVAGFVRWCHGDLHLANIVVIDGKPTLFDAIEFDPALASVDVLYDLAFPLMDLLHYGRGSDSAQLLNRYLAVTNADNLDALSALPLLLSMRAAIRAKVMLARPAADETIRRANRAIAESYFELALRLIAPPPPRLIAVGGLSGTGKSVLARALSGNVPPLPGAVVLRSDVARKRLHGVADTERLPATAYTTEVTEAVYRGLVERAAHILKQGHSVIVDAVFSKPEERDAIESVAAGLGISFHGLFLTADLATRVARVAGRTADASDATPEIVRQQQSYAQGVIGWTSIDAGGTPAETLSRAVAALPQTAQVCSTLEHHHHHH” here?
**A.** Its protein production is “not failed”.

**Q.** With “MSTPDNRSVNFFSLFRRGQHYAKTWPMEKRLAPVFVENRVIRMTRYAIRFMPPVAVFTLCWQIALGGQLGPAVATALFALSLPMQGLWWLGKRSVTPLPPSILNWFYEVRGKLQEAGQALAPVEGKPDYQALADTLKRAFKQLDKTFLDDL” as the sequence, how does the protein production read?
**A.** The protein production was “not failed”.

**Q.** For “MSTPRPSLTLTLLQAREAAMSFFRPSLNQHGLTEQQWRVIRILRQQGEMESYQLANQACILRPSMTGVLARLERDGIVRRWKAPKDQRRVYVNLTEKGQQCFVSMSGDMEKNYQRIQERFGEEKLAQLLELLNELKKIKP”, which protein production is on record?
**A.** Its protein production is “not failed”.

**Q.** Which protein production does the source give for “MSTRRSAFLRGLWAATPFSLVIAPFGLLFGVVGTEAGLDIVEVMGFSIIVIAGAAQFAAVQMMADHAPTLIILATSLAVNLRMAMYSASLTPHLGPAPAGLRALIAYCLVDQTYTASMIEFDRAPQQSLGEKIAFFFGTVLPVCPLWYGSTYVGARLGTKIPPEFALDFAVPITFLAMIAPLLRTPAHIAAAGVSVALSLVLAFMPYNSGLLVAAVAAMVTGAQVEAWTERRRAA” here?
**A.** Its protein production is “failed”.

**Q.** Which protein production does the source give for “MSTSMPTALAGGRYQLGQLIGRGGMAEVHVALDTRLGRTVAVKIMRADLANDDIFLARFRREAHAVAQMNNPNIVNIYDSGEELVSSESGDTERLPYIVMEYVKGQTLRDIIKVNGALSQRDCEQVLLGVLNALDYSHRMGIIHRDIKPGNIMISEQGVVKVMDFGIARALDDSAATMTQSQGVVGTAQYLSPEQARGETVDMRSDLYSAGCVLYEMLTGRPPFTGDSAVAIAYQHVSEVATPPSAVVPGLPKMWDSICAKAMAKDRQNRYATASEFKTDILTYMNGGVPVAAAFNPLTDLSNMKARKEAERDLPTTPVEPQQQPTQAFNPVTGQFEQIPPANGANSAALQSRAQQRAAAAKAKKRKKIIIGSVIAVLAVALVGAGVVFAMSGAPNKSAEDKVTIPEVCNASTSKDNIKLKLETLGLTMVGKQDTDSTEPEGTCTKMSPEAGAKVAKGSKVKVWFSAGPQSTQVPDVKERSQEEARSILESAGFKVNATVRTEDSADIAKDMVTKTDPAAGQSVPKGTTITIYVSSGMTTVPSNLVGQSKDSVLQQYEGRFSFTVEQESSDTVEAGLITRVSPDSGSSIAQGGSITIWVSTGKEKVAVPNIAAGTKYATAELMLKAVGLKAQANGPADPTAVVVGIDPGAGAQVDVGSTVTITTKAAVTGDNNGNGNGNAGGSSSTGGTGPGGDK” here?
**A.** Its protein production is “failed”.

**Q.** Which protein production does the source give for “MSTSQGSPNWPRAERVARLEVLETQILARPAEVYAEVLALWPGLSAAVPSPASPAPDSCPGPSELAAQATALQLLSRCAVLLGEDGAAANHAETGRRLAHDLGLRSLEARCLEVLGVVRGRQGDVKQAAWLLRRSLYLLHALGDTPGQGRLLGRVGDLLERLEEYPQALLFYRAGLAQLPAARPVTAAVQVGLARTLHQLGEYAESQELAAQALAVCQEVGLPQLEAQVQLQQALTQLALGELDASRRHAEQAQALAAPRHAEQAQALAAPLEHTVPGAAAWVLGEAALVRGDLAQAREGLGRAEELANTPPLLARVRGSQSRLYEQLGDPAQALRCLREQRELEQQHRARLAEQRAGLLAEQIRYEVLRREAELQRKRRNERAQAASALRETRVELSRQASHDQLTGLANRSFFYTRARQALDLLAPGRSLGLIVADIDHLKAINDRFGYAVGDLLITELARRLCEAVRPGDLVGRLSGDEFVMLLSDLASPGDLRLVAERLLQQLREPCVCGTELVVPTVSLGYVVAPQDGGDVELLQKRADLALFQAKAQGRNMAVAFAGDMSAEEEERRMLSQDLRHAVRHGQLQLHYQGIFLLPGQRLSGFEALVRWPHPKRGMIPPDRFIALAEESRLILELGRWVLDEACRQARAWQLPERGLTMAVNVSALQFEQSDFVAGVRACLEQHGLPGHSLVLELTESMVHRDPRLAKQTLRELQALGVKVAMDDFGTGYSSLSMLKSLPFGLLKIDREFLQDLSAASEQFAASQQFIEVMVRLAHNLQMRVVAEGVETAEQYDLLCGMGCDEAQGYWLARPLPPAEAAALLPAGAPDSPWPTQSPSSQQARQESPRQSLSED” here?
**A.** Its protein production is “failed”.

**Q.** Which protein production does the source give for “MSTSSTQHAAPAFTGFSSSAQAMSLVAFTTVATITLLLCVMTGPDRDDLEEFYTGYGSLSPMRNGLAIAGDYISAATVLGTGGVIALTGYDGVVLALSTALSLMLLMFLLAEPLRNAGQFTMGDALARRMPGRAVRVTACVVTIAALLPLMLVQLAGTGDLLSFILGFSNDTLKTGCIIGLGALMISYAAIGGMKGTALIQIMKIVMLLGSGAVVAVLILHRFDWDPGALFSAAAAHSGAGPAFLRSGLEFAGGPNPRLDMITTELTVVLGGGCLPHVTMRMYTANSARQVRRSMSWAVPAVALFVLVITVVGFGATALVGREAIAAADPQGNTAYLLGSRAAFGPDVSSAETLLFTTVTTALFLTLLASVAGMILACANSLAHDVFAARVQEMSPRREMTLARLSALAVGVPTILLATLVHHRSLQPLVTLSFCIGASAIAPALVYGLFWRRYTRTGLLCTLIGGTLSVVLLLPGTNLVTGSPAAAFPDADFNWFPFTTTGLATIPLGFLLGWLGTLLSGRQKAEAQRRQYEAVEGWILAGAVRRSG” here?
**A.** Its protein production is “failed”.

**Q.** Which protein production does the source give for “MSTSTSCPIPGGRDQLPDCYSTTPGGTLYATTPGGTRIIYDRKFLLECKNSPIARTPPCCLPQIPGVTTPPTAPLSKLEELKEQETEEEIPDDAQFEMDI” here?
**A.** Its protein production is “failed”.

**Q.** With “MSTSYQHSGPEFTEAQMQAMVDGLFAGASIGAVCNMQQEQLEAGYALAYNLYTAGNYRDAETMFRALCVYDHNDERYWLGLAGCRQAQGDLAGAIDAYGLAGAASALGDPAPFVHAGICYMKLGDTENARNTFAGVPFIGDPDNDTHAAMHRKAEAMLELLAGERP” as the sequence, how does the protein production read?
**A.** Its protein production is “failed”.

**Q.** Which protein production does the source give for “MSTTDDSYIVVNNEAAGKVSLKEKWWHVLDTYKVGIIPVPLFVLAGVLIGIDCLSGKLPSDIVVMVATLAFFGFACGEFGKRLPIIGKMGAAAICATFIPSAMVHYGLLPDVVVESTTKFYKSTNILYLYICCIIVGSIMSMNRQTLIQGFMRIFFPMLCGEIAGMLVGMGVGIALGLDPFQIFFFLILPIMAGGVGEGAIPLSIGYATILHMDQGVALGRVLPIVMLGSLTAIILAGVLNQLGKRYPHLTGEGELMPNKGNNLGGSESSAPASAFSGKADVTTIASGALLAILLYMVGMLGHKMIGLPAPVGMLFAAVVVKLAHGVSPKMLEGSQVVYKFFQTSVTYPILFAVGVAITPWQELVNAFTIQNLLVIISTVVTLVGTGFLVGRKIGMHPIDVAIISCCQSGQGGTGDVAILTAGNRMMLMPFAQIATRIGGAINVSISLLVLANFLV” here?
**A.** Its protein production is “failed”.
